Assay [1] concerns the target T1, recombinant his-tag human LAG3-ECD protein (human, UniProt P18627 23-450).
T1 construct: extracellular domain; not shown: his tag
T1 sequence (looked up): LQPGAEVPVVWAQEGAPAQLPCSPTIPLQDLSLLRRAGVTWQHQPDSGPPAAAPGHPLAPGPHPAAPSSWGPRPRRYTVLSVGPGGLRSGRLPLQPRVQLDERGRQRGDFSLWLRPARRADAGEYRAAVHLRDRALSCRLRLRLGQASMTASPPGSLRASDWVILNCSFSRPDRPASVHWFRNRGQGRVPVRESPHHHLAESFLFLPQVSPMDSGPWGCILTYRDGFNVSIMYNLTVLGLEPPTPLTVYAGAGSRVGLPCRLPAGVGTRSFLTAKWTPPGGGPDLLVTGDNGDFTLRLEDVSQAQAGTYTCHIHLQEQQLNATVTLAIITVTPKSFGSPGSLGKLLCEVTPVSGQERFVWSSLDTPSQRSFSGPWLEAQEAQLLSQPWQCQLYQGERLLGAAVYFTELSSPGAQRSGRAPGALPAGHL
Kind of assay: SPR Biacore T200, antibody captured by anti-human Fc, LAG3-ECD-his injected. As for the experimental part:
The binding of the S20, S24, S27, S31, S87, S119, S120, S128, S136, S161 and T99 antibodies to recombinant his-tag human LAG3-ECD protein was examined by Biacore T200 using a capture method. Anti-LAG3 antibodies were captured using anti-human Fc antibody. The anti-human Fc antibody was coated on chip. Serial concentrations of his-tag human LAG3-ECD protein (0-4 nM) were injected over capture antibodies at the flow rate of 30 μl/min. The dissociation phase was 900 s or 550 s. The Biacore results for the anti-LAG3 antibodies have shown that these anti-LAG3 antibodies are high affinity binder to human LAG3.
Background: In SPR one partner is held on a chip, and binding of the other changes the refractive index at the surface.

Assay [2] addresses T2, recombinant human LAG-3-ECD-human IgG1 fusion protein (human, UniProt P18627 23-450, biotin-labeled in the MHC class II blocking assays).
T2 construct: extracellular domain; also called LAG-3-huFc; LAG-3-ECD-huFc; not shown: human IgG1 Fc
T2 sequence (looked up): T1 sequence (looked up)
The assay is described as follows: ELISA on coated human LAG3 ECD-Fc; EC50 table has no unit, x axis Ab(nM). As for the experimental part: (§1) To evaluate the capability of the anti-LAG-3 antibodies to bind to human, rat, and mouse LAG3 the antibodies identified in Example 2.1 were evaluated for their binding property through ELISA. The human, rat and mouse LAG3 ECD-Fc protein were coated to ELISA plate at 1 μg/ml with 100 μl/well. Antibodies from Example 1 were serially diluted with ELISA diluent buffer. […] The resulting plates were washed and then labeled with anti-human IgG(Fab)-HRP antibody. The S31 can only bind to human LAG3. The S27 and T99 can bind to human LAG3 and rat/mouse LAG3 with lower potency. The S119 antibody can bind to human, rat and mouse LAG3 at high potency (FIGS. 22A-22D).

For assay [3], the target named is T2, recombinant human LAG-3-ECD-human IgG1 …. The assay is described as follows: flow cytometry; blocking of biotin-LAG-3-ECD-huFc binding to MHC class II on Raji cells. The protocol: To evaluate the ability of anti-LAG-3 antibodies to block the binding of sLAG-3 to MHC class II receptor, an in vitro binding assay was designed using biotin-labeled LAG-3-ECD-huFc fusion proteins and Raji cells expressing MHC class II receptor. Antibodies from Example 1 were serially diluted from 20 μg/mL with FACS buffer and pre-incubated with 6 μg/mL of biotin-LAG-3-ECD-huFcc for 30 min at room temperature. The antibody mixture was then added to FcR blocked Raji cells and incubated for 30 min on ice. Cells were then washed with FACS buffer and subsequently stained with streptavidin PE for 30 min on ice and subsequently washed once with FACS buffer. Labeled cells were evaluated for fluorescence intensity by flow cytometry in a BD FACSCalibur™.
For orientation: A flow cytometer gives signals particle by particle.

The next assay has as its target T3, rat LAG3 ECD-Fc protein (rat, UniProt Q5BK54 24-442).
T3 construct: extracellular domain; not shown: Fc part
T3 sequence (looked up): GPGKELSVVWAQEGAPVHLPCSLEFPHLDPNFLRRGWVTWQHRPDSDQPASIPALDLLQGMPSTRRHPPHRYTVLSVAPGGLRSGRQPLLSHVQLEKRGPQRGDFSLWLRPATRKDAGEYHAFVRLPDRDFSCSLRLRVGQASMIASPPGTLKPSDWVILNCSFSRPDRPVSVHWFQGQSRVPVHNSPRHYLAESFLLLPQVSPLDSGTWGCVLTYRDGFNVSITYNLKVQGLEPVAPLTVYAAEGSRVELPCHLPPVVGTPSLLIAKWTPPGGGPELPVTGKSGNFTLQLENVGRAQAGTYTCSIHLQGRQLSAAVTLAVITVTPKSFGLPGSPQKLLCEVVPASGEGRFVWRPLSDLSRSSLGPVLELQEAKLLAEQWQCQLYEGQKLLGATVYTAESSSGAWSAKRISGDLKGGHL
Kind of assay: ELISA on coated rat LAG3 ECD-Fc; EC50 table has no unit, x axis Ab(nM); curve without upper plateau. The protocol:
as §1

Assay [4] deals with T4, mouse LAG3 ECD-Fc protein (mouse, UniProt Q61790 24-442).
T4 construct: extracellular domain; not shown: Fc part
T4 sequence (looked up): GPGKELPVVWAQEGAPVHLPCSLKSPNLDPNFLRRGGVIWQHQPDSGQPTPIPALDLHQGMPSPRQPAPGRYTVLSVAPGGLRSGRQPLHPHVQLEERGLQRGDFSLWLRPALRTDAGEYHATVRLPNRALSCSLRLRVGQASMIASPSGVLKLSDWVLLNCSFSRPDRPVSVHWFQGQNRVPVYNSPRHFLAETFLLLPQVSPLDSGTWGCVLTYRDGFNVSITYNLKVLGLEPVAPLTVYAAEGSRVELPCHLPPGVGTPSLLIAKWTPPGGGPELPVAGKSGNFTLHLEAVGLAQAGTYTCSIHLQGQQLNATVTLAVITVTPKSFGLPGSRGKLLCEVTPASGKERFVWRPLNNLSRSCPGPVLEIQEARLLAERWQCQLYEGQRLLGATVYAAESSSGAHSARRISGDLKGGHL
Kind of assay: ELISA on coated mouse LAG3 ECD-Fc; EC50 table has no unit, x axis Ab(nM); curve without upper plateau. The protocol:
as §1
A general note: ELISA stands for enzyme-linked immunosorbent assay.

For a further assay, the target named is T5, Bio-LAG3 (human, UniProt P18627 23-450, limits assumed, biotinylated (sites not given)).
T5 construct: also called human LAG3 protein
T5 sequence (looked up): T1 sequence (looked up)
The assay is described as follows: ELISA, Bio-LAG3 held on streptavidin-coated plate. The protocol: The streptavidin was coated to an ELISA plate at 2 μg/ml with 100 μl/well. 100 μl of Bio-LAG3 at 1.0 μg/ml was subsequently incubated with streptavidin at RT for 1 hr. B3807, along with a positive control 25F7 and a negative control IgG, were serially diluted with ELISA diluent buffer. To assess binding, the antibodies at various concentrations were added to LAG3 protein-coated plate for 1.5 hr RT. The resulting plates were washed and then labeled with anti-human IgG(Fab)-HRP antibody.

In assay [5] the target is T6, human LAG3 on cells (human, UniProt P18627 23-525).
T6 construct: whole, on cells; also called Jurkat-LAG3
T6 sequence (looked up): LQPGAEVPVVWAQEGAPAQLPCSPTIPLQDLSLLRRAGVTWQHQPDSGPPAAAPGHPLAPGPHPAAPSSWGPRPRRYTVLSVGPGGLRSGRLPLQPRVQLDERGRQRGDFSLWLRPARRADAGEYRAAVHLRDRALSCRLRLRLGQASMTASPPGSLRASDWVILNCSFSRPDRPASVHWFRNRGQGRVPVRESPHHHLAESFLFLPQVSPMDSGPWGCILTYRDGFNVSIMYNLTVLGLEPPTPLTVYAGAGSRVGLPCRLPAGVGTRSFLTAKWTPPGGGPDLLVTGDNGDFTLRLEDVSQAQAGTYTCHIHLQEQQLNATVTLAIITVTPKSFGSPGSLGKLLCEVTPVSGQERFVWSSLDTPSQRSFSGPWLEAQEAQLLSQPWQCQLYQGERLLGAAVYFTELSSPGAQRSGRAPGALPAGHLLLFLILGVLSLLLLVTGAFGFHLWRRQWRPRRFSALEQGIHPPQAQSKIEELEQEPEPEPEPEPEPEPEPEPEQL
The assay is described as follows: flow cytometry (MFI) on activated human PBMC (CD4+ cells), lower panel. The protocol: (§2) To further confirm that B3807 could bind to cell-derived human LAG3, both inducible human LAG3 expressed Jurkat cells and activated PBMCs were used to test the binding capability of B3807. In brief, Jurkat cells were resuspended in FACS buffer. B3807, 25F7 and isotype control were 3-fold serially diluted in FACS buffer with a dose ranging from 20 nM to 9 pM. The serially diluted antibodies were added to the cell suspension and incubated for 30 minutes on ice. Then after removal of unbound antibodies, cells were stained with anti-human IgG conjugated with Alexa Fluor 633 (Thermo, A21091). Fluorescence measurement was acquired on FACSCelesta flow cytometer and analyzed in Flowjo to determine the mean fluorescence intensities (MFI). To test the antibodies' ability of binding to native human LAG3, PBMCs from health donor were stimulated with anti-CD3 (BD, 555336) and anti-CD28 (BD, 555725) both at a concentration of 1 μg/ml. Following 3 days' stimulation, cells were harvested and incubated with anti-LAG3 antibodies for 30 mins on ice. The cells were stained with anti-human CD4 and anti-human IgG. Analysis of antibodies binding to CD4+ cells were carried out on FACSCelesta flow cytometry.

Assay [6] deals with T6, human LAG3 on cells. The assay is described as follows: flow cytometry (MFI) on human LAG3-expressing Jurkat cells, upper panel. The protocol:
as §2

Results on three molecules are retold here after patent US20220363763A1 (ABL BIO, published 2022).

B1: NLAG3-HDB169-T99 (antibody, human IgG1, V domains shown)
VH: QVQLVQSGAEVKKPGSSVKVSCKASGGTFSSYAISWVRQAPGQGLEWMGGIIPIFGTANYAQKFQGRVTITADESTSTAYMELSSLRSEDTAVYYCVRDLQDWNYGGAAYWGQGTLVTVSS
VL: VIWMTQSPSSLSASVGDSVTITCQASRDISNSLSWHQQKPGKAPKLLIYAASSLQSGVPSRFSGSGSGTDFTLTISSLQPEDFATYYCQQTKSFPLTFGGGTKVEIKR
notes: Short label tied by its unique suffix
A word on the Kd: it is a measure of binding affinity in units of concentration. As a reminder, the koff is a measure of how fast the partners let go of each other. By kon is commonly meant the rate constant with which the complex forms. Usually EC50 stands for the concentration giving half of the maximal effect. The term IC50 denotes the midpoint of a concentration-inhibition curve. B1: in assay [1], the Kd came to 0.0224 nM, the koff was found to be 0.00017 s⁻¹ and the kon came to 7.62e+06 M⁻¹ s⁻¹. Also, in assay [2], the EC50 is 0.0638 nM. Besides, the IC50 in assay [3] turned out to be 23.7 nM. Besides, the midpoint of the response in the assay with rat LAG3 ECD-Fc protein, the EC50, lay at 20.9 nM. Besides, in assay [4], a half-maximal effect (EC50) was put at 16.9 nM.

B2: 25F7 (antibody, V domains shown)
VH: QVQLQQWGAGLLKPSETLSLTCAVYGGSFSDYYWNWIRQPPGKGLEWIGEINHNGNTNSNPSLKSRVTLSLDTSKNQFSLKLRSVTAADTAVYYCAFGYSDYEYNWFDPWGQGTLVTVSS
VL: EIVLTQSPATLSLSPGERATLSCRASQSISSYLAWYQQKPGQAPRLLIYDASNRATGIPARFSGSGSGTDFTLTISSLEPEDFAVYYCQQRSNWPLTFGQGTNLEIK
B2: the EC50 with Bio-LAG3 turned out to be 0.22 nM; in the assay with human LAG3 on cells [5], 0.52 nM; with human LAG3 on cells [6], 0.57 nM.

B3: NLAG3-HDB169-S27 (antibody, human IgG1, V domains shown)
VH: QVQLVQSGAEVKKPGSSVKVSCKASGGTFSSYAISWVRQAPGQGLEWMGGIIPIFGTANYAQKFQGRVTITADESTSTAYMELSSLRSEDTAVYYCTTAAPGSYYLVFHYWGQGTLVTVSS
VL: DIQLTQSPSSLSASVGDRVTITCRASQTISSHLNWYQQKPGKAPKVLIYAASSLQSGVPSRFSGSGSGTEFTLTISSLQPDDFATYYCQQGNSFPFTFGPGTKVEIKR
notes: as for B1
On to B3, for which, in assay [1], the equilibrium dissociation constant (Kd) amounted to 0.0156 nM, the koff stood at 0.00011 s⁻¹ and the kon is 7.04e+06 M⁻¹ s⁻¹. In addition, the EC50 in assay [2] is 0.21 nM. In assay [3], the IC50 was 29.8 nM. Also, the EC50 with rat LAG3 ECD-Fc protein was determined as 13.9 nM. The same molecule displayed an EC50 in assay [4] of 12.6 nM.
